The values below come from article PMC9774250.

The test system of data set [1] is heme-YgaV (His-tagged, hemin-reconstituted) (Escherichia coli (WT genomic DNA; BW25113?)). Put plainly: EMSA. To be noted: heme; 10 mM Na2S (oxidized); EMSA: 50 nM probe, 25 mM Tris-HCl pH 8.0, 100 mM NaCl, 2 mM MgCl2, 6% glycerol, 50 mg/mL heparin (so in the source), room temperature 30 min; footprint: 100 nM DNA ….
Data set [2] relates to apo-YgaV (His-tagged) (Escherichia coli (WT genomic DNA; BW25113?)). Nature of the data set: EMSA. The note with it: EMSA: 50 nM probe, 25 mM Tris-HCl pH 8.0, 100 mM NaCl, 2 mM MgCl2, 6% glycerol, 50 mg/mL heparin (so in the source), room temperature 30 min, footprint: 100 nM DNA ….

Regarding ygaVP promoter, the binding signal (fold higher EC50 than DTT-reduced) in data set [1] and in data set [2] (10 mM Na2S (oxidized)) was 5 throughout.
With katG promoter, in data set [2] (1 mM DTT (reduced), scale: fold higher YgaV concentration for shift than ygaV promoter), the binding signal was 20.
